Consider one molecule from patent US20180170997A1 (NATIONAL CANCER CENTER, published 2018).

The target in assay [1] is T1, AITR on AITR-overexpressed Jurkat cells (CD5L-AITR-TM-ECD) (human, UniProt Q9Y5U5 26-183, limits assumed).
T1 construct: domain: transmembrane domain (TM)-ECD; also called pcDNA3.1(+)/CD5L-AITR-TM-ECD
T1 sequence (looked up): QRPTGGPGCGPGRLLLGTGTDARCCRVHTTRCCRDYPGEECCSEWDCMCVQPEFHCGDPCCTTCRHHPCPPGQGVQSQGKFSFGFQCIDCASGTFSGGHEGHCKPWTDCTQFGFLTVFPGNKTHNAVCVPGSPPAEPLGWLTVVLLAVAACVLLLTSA
In words: flow cytometry on AITR-overexpressed Jurkat cells.
Procedure: In the flow cytometry experiment, the present inventors used fluorochrome-conjugated antibodies against CD4, CDS, CD11c, IFN-γ, Foxp3, CTLA-4, CD62L, CD45RO, CD45RA (BD Bioscience), CD19, CD56, CD14, CD127, IL-4, IL-17A, GATA-3, T-bet, RORγt (ebioscience, San Diego, Calif.), and BDCA-2 (Miltenyi Biotec). […] Intracellular level of cytokines was measured after 5 hour-long pre-incubation with 50 ng/ml phorbol 12-myristate 13-acetate (PMA), 10 μg/ml ionomycin, and 10 μg/ml Brefeldin A (Sigma-Aldrich, St Louis. Mo.). FACSCalibur flow cytometer (BD Bioscience) was used for all of the flow cytometry analysis and WinMDI software (Ver. 2.9, Scripps. Institute) was used for data analysis.
For generating AITR-overexpressing cells, the gene fragment encoding AITR-transmembrane domain (TM)-ECD was inserted in-frame with CD5L sequence in a mammalian vector pcDNA3.1(⁺), i.e. pcDNA3.1(⁺)/CD5L-AITR-TM-ECD. Then pcDNA3.1(⁺)/Empty vector or pcDNA3.1(⁺)/CD5L-AITR-TM-ECD vector was transient transfected into Jurkat cells by electroporation. AITR expression on cell surface was detected by staining with biotin-conjugated anti-AITR mAb.

Assay [2] concerns the target T2, activation-inducible tumor necrosis factor receptor (AITR) on human T cells (human, UniProt Q9Y5U5 26-241).
T2 construct: whole, on cells; also called GITR; TNFRSF18
T2 sequence (looked up): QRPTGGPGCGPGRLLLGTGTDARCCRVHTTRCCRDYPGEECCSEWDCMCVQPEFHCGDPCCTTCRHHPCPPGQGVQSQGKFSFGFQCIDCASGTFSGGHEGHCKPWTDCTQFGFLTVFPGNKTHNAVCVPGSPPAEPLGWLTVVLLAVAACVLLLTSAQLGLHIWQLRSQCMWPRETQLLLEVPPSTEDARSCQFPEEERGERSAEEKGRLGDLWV
As to the kind of experiment: flow cytometry on stimulated PBMC subsets.

B1: anti-AITR mAb B32 (antibody, V domains shown)
VH: EVQLLESGGGLIQPGGSLRLSCAASGFTFSTYGMSWVRQAPGKGLEWVSGITGSAGGGSTNYADSVKGRFTISRDNSKNTLYLQMNSLRAEDTAVYYCAKGYSSNWRSAFDIWGQGTMVTVSS
VL: SYELMQPPSVSVSPGQTAGITCSGDALPKQYAYWYQQRPGQAPVLLIYKDTERPSGIPERFSGSSSGTTVTLTISGVQAEDEADYYCQSADSSGTYPVFGGGTKLTVL
notes: also called clone B32
On to B1, for which the binding result in assay [1] and in assay [2] was “binds” in each case.
